The supplement of paper PMC9170038

Tested on: MS2 coat protein
Assay: apparent KD of MS2 coat protein; higher = weaker reporter binding
Conditions: Eterna round: R107
Method in brief: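 Each design's apparent KD comes from the median of binding-curve fits to its normalised clusters. Those clusters carried RNA switches transcribed on-chip from Illumina sequencing clusters. SNAP-549-labelled MS2 coat protein was titrated onto them in twofold steps (0.7 or 1.5 nM to 3 µM; per step 0.8–1.5 h down to 10–20 min). Conditions were 100 mM Tris-HCl pH 7.5, 80 mM KCl, 4 mM MgCl2, without or with constant ligand.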

[1] = input ligand: theophylline 20 uM
[2] = input ligand: theophylline 2 mM
[3] = input ligand: tryptophan 2.4 mM

| Sequence | apparent KD of MS2 coat protein (input ligand: arginine 13.2 mM) | apparent KD of MS2 coat protein (input ligand: none) | apparent KD of MS2 coat protein [1] | apparent KD of MS2 coat protein [2] | apparent KD of MS2 coat protein [3] |
| --- | --- | --- | --- | --- | --- |
| UCCACAUGAGGAUCACCCAUGUGCCAUGAUACCAGACAUGAAAAUGUCCCUUGGCAGCAUGAGUGAGGCAUCCGAAAGGAUGCCU [Chrlice] | 149 nM | 157 nM | 260 nM | 38.3 nM | 409 nM |
| UCCUCCUCCGCAAGGAGGAGGAGUUGCGAUACCAGCACGGUAACGUGCCCUUGGCAGCGCACAUGAGGAUCACCCAUGUCAUGUU [#1 Exclusion - Theophylline A Attempt #11 (HarryS)] | 15 nM |  | 24.5 nM |  | 17.1 nM |
| UCCUCCUCCGCAAGGAGGAGGAGUUGCGAUACCAGCCCGGAAACGGGCCCUUGGCAGCGCACAUGAGGAUCACCCAUGUCAUGUU [#1 Exclusion - Theophylline A Attempt #8 (HarryS)] | 14.6 nM | 18.1 nM | 19.8 nM | 30.6 nM | 18 nM |
| UCCUUAGAUACUGAUACCAGACUACAGUAAACAUGAGGAUCACCCAUGUUUGAUCACUAAGUCCCUUGGCAGCAGGUACAUGGGA [Theo B SS r1] | 12.6 nM |  | 12.9 nM |  | 11.9 nM |
| UCGCAUUGCUGCGAUACCAGACAUGAGGAUCACCCAUGUACCAAGAAAACGUACAUAAAUGUCCCUUGGCAGCGCAGCAAUGCGU [MAT - Exclusion Theophlline B - Mod of Eli - D26] | 148 nM |  | 656 nM |  | 631 nM |
| UCGCCCAGAAAGGAUUGCUGGGAUAUGGAAGGAGCGCUGAUGCCAGCAGGUAGGUCGCCAACGGACAUGAGGAUCACCCAUGUAC [Same State - Arginine A (Freestyle 6)] | 16.7 nM | 19.8 nM | 28.7 nM | 21.1 nM | 20.9 nM |
| UCGCCCAGGUAGGCUUAAUGGGAUAUGGAAGGAGCGCUGAUGCCAGCAGGUAGGUCGCCAACGGACAUGAGGAUCACCCAUGUAC [Same State - Arginine A (Freestyle 4)] | 24.7 nM | 18 nM | 34.6 nM | 27.1 nM | 22.7 nM |
| UCGGGCCUUCUUUCUUGGCCCGUUACAGAAGGAGCGUCGGAAAUGACAGGUAGGUCGCUGAGAACAUGAGGAUCACCCAUGUAUU [SSAA #14] | 16.8 nM | 26.4 nM | 28.9 nM | 25.1 nM | 22.1 nM |
| UCGUGAGUUUCGGAUACCAGUGUUGUCGAUACAUGAGGAUCACCCAUGUUAGAGGAUGUACACCCUUGGCAGCCGGCUGUGGCGG [lplmullin] | 15.8 nM |  | 16.1 nM |  | 17.3 nM |
| UGACAUUGCUCAGAUACCAGACAUGAGCAUCAGCCAUGUACCGAGAGUACAUGUUAAAGUGUCCCUUGGCAGCUGAGCAAUGUCU [Mod of Eli's TheoBX5 #AlternateMS2 v4] | 116 nM | 328 nM | 640 nM | 371 nM | 404 nM |
| UGACAUUGCUGCGAUACCAGACAUGAGGAUCACCCAUGUACCAAGGUACCCGAAAGGAAUGUCCCUUGGCAGCGCAGCAAUGUCU [MAT - Exclusion Theophlline B - Mod of Eli - D18] | 10.6 nM |  | 11.6 nM |  | 9.73 nM |
| UGAUACCAGUCGGCCGCCACUAUGCUAGAUACUAGCAAUAAAGGGCGACAUGAGGAUCACCCAUGUAGGACCGGGACUGGUAUCU |  |  | 14.1 nM | 12 nM |  |
| UGCACCAUAAUCAUGUUGGUGCUAGGUGAUACCAGCAUCGAAAGAUGCCCUUGGCAGCACCAACAUGAGGAUCACCCAUGUAAUA [(MT)''-(M)'-(T')-(Theo)-(Ms2)_Design1/22_3] | 60.1 nM |  | 351 nM |  | 57.9 nM |
| UGCAUCAUAAUCAUGUAGGUGCUAGGUGAUACCAGCAUCGAAAGAUGCCCUUGGCAGCACCAACAUGAGGAUCACCCAUGUAAUA [(MT)''-(M)'-(T')-(Theo)-(Ms2)_Design1/22_1] | 48.4 nM |  | 186 nM |  | 231 nM |
| UGCGACAAGUGAAUACUUUGUUCUAGAGAUACCAGUUCCCGAGUGAACCCUUGGCAGCUCCCAACAUGAGGAUCACCCAUGUAUU [theeternabot_exclusion_MS2_Theo_A_24] | 15.9 nM |  | 20 nM |  | 13.5 nM |
| UGGCAAGAGGGAAGGAGCGUCAGCUGAGUCACAUGAGGAUCACCCAUGUCGCACAUAGUGUGACAGGUAGGUCGCCCUCUGCCGU [Vesosocera] | 70 nM | 122 nM | 152 nM | 207 nM | 122 nM |
| UGGCAGCACCUCAUGUGCUGCCAAGGUGAUACCAGCAUCGAAAGAUGCCCUUGGCAGCACCAACAUGAGGAUCACCCAUGUAAUA [(MT)''-(M)'-(T')-(Theo)-(Ms2)_Design1/22_7] | 26.8 nM |  | 374 nM |  | 217 nM |
| UGGGUUGGACCAGGAAAUGGUCUGACUCACCGAGGACCGGUACGGCCGCCACUCGUAGGUACAUGAGGAUCACCCAUGUCGGUGG [#1 Same State - Tryptophan A Attempt #11 (HarryS)] | 91.7 nM | 23.6 nM | 34.2 nM | 36.2 nM | 68.8 nM |

| Sequence | apparent KD of MS2 coat protein (input ligand: arginine 13.2 mM) | apparent KD of MS2 coat protein (input ligand: none) | apparent KD of MS2 coat protein [1] | apparent KD of MS2 coat protein [2] | apparent KD of MS2 coat protein [3] |
| --- | --- | --- | --- | --- | --- |
| UGUAACAUGAGGAUCACCCAUGUAAGUGAUACCAGAUAAGUAGUAGUCCCUUGGCAGCAUAUUGGGCAAGUGUAUAGUCUAUACG [Same State - Theophylline A (Freestyle 6)] | 43 nM |  | 65.3 nM |  | 48.3 nM |
| UGUACAGACAUCGAAUUCCUAUGUGCUGAAGGAGCGUCGUUGACGACAGGUAGGUCGCAGUUAACAUGAGGAUCACCCAUGUACA [Arg A Ex t5] | 45.8 nM | 85.8 nM | 82.3 nM | 119 nM | 77.5 nM |
| UGUACCUAGUCGGCCGCCACUCAAUAAUGAGAGGAUCACCCUCAUAAACGAGUCAAAGACUCGAUGAGGACCGGGACUAGGUACU [Palindromic MS2 2 #AlternativeMS2 #Palindrome #StaticStem] | 59.4 nM | 53 nM | 73.2 nM | 72.7 nM | 21.1 nM |
| UGUAUGUGAUCUGAUACCAGCGAUGAUAACCUGAGGAUCACCCUGGUAUGGCGAAAGCCUCGCCCUUGGCAGCAGAUCGCAUACU | 184 nM | 747 nM | 402 nM | 30.7 nM | 1210 nM |
| UGUAUGUGAUCUGAUACCAGUCCAACUGGUAAAGCAUGAGGAACACCCAUGCAAAAUUGGGACCCUUGGCAGCAGAUCGCAUACU | 169 nM | 247 nM | 255 nM | 34.6 nM | 278 nM |
| UGUAUGUGAUCUGAUACCAGUCCAACUGGUAAAUCAUGAGGAUCACCCAUGGAAAAUUGGGACCCUUGGCAGCAGAUCGCAUACU | 94.1 nM | 452 nM | 490 nM | 38.1 nM | 1070 nM |
| UGUAUGUGAUGUGAUACCAGUCCAAUACUGGUAACAUGAGGAUCACCCAUGUAAUGAUGGGACCCUUGGCAGCACAUCGCAUACU [ThBS] | 175 nM |  | 347 nM |  | 242 nM |
| UGUUUGGUGCGCGAGUGUUGGAUAAUUGAUACCAGUGUAGAUGUGCGCCCUUGGCAGCGAAUCCUAACAUGAGGAUCACCCAUGU [5.Y] | 38.2 nM |  | 59.5 nM |  | 41.8 nM |
| UGUUUUUAUCGAAGGAGCGCCGCAUGAGGAUCACCCAUGCACAUGAGGAUCACCCAUGUCUGGCAGGUAGGUCGCGAUCAAUGGG [Same State Arginine B GF 11] | 33.7 nM | 41.9 nM | 48.7 nM | 47.9 nM | 44.3 nM |
| UUAACAUGAGGAUCACCCAUGUUUGAUGAAGGAGCGACCAGAGGGUCAGGUAGGUCGCAUCACAUGAGGAUCACCCAUGUCGCCC [DOUBLE!!! :-D #13] | 22.3 nM | 21.8 nM | 26 nM | 25.8 nM | 22.4 nM |
| UUAAGAGGCUAUCAAAUUUGAUUUUGUGAUACCAGAAUAAUUUUAUUCCCUUGGCAGCAUGACAUGAGGAUCACCCAUGUGUCUU [SSTheo A #2] | 33.8 nM |  | 40.2 nM |  | 34.6 nM |
| UUAAUCUUAUAUGAAAACAUAUAAGCAGAAGGAGCGUGAUAAAACACAGGUAGGUCGCUGAAGGGAACAUGAGGAUCACCCAUGU [AstrosSSArgA#4] | 22.7 nM | 22.4 nM | 33.8 nM | 30.6 nM | 28.4 nM |
| UUACCGUAAGGUAUACCGGUCCACAAUAAUCGAGGACCGGUACGGCCGCCACUCGAUGUGUGAUCACAUGAGGAUCACCCAUGUA [Tryptophan A 20] | 99.4 nM |  | 460 nM | 562 nM |  |
| UUAUAAGUACCGGUCCUCAGAUCCUCAUGACGAGGACCGGUACGGCCGCCACUCGAAACAUGAGGAUCACCCAUGUAAUAACAUU [Brourdmod19] | 18.9 nM |  | 28.8 nM | 25.6 nM |  |
| UUAUAAGUACCGGUCCUCAGAUCCUCAUGACGAGGACCGGUACGGCCGCCACUCGAAACAUGAGGAUCACCCAUGUAAUAAUAUC [Brourdmod09] | 20.6 nM |  | 56.6 nM | 59.3 nM |  |
| UUAUAUACUACGGCCGCCACUGAACAUGAGGAUCACCCAUGUAAUGUUCAGAUUUUUUUUUUUUACAGGACCGGGUAGAAUUAAA [Tryptophan B 2] | 67.9 nM |  | 127 nM | 206 nM |  |
| UUAUUUAACGGAAGGAGCGCGGAAUAAUAAGUGGGUAAACAUGAGGAUCACCCAUGUAAACCGCAGGUAGGUCGCCGAUAUUUAU [AstrosEXyARgB#3] | 66.2 nM | 79.3 nM | 88.9 nM | 98.1 nM | 74.7 nM |
